# Measurements: the supplement of paper PMC7125110
# ± gives the standard error. This sample holds only a part of the variants without activity.
# B1: glmS ribozyme (parent)
# chain: AUAAAAGCGCCAGAACUACAGAAAUGUAGUUGACGAGGAGGAGGUUUAUCGAAUUUUCGGCGGAUGCCUCCAAA
# Assays:
# Settings in all cases: with glucosamine-6-phosphate
# glucosamine-6-phosphate [1] = variants of: B1; assay: self-cleavage kobs at 640 uM GlcN6P; higher = faster cleavage; RNA array
# In short: (§1)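 Sequenced MiSeq chips were the platform: E. coli RNA polymerase transcribed barcoded ribozyme variants on them in situ, and a hybridised Cy3 probe tracked these at 37 °C. After glucosamine-6-phosphate (40 μM to 10 mM) in HEPES/KCl/Mg(OAc)2 buffer was flowed in, tiles were imaged over ~14 h. Signals normalised to baseline and to non-cleaving reference variants were reduced to per-tile medians and fit to one- or two-exponential decays to obtain kobs. kcat and KM were derived through weighted Michaelis–Menten fits across concentrations.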
# glucosamine-6-phosphate [2] = variants of: B1; assay: self-cleavage kobs at 2500 uM GlcN6P; higher = faster cleavage; RNA array
# In short: as §1
# glucosamine-6-phosphate [3] = variants of: B1; assay: self-cleavage kobs at 10000 uM GlcN6P; higher = faster cleavage; RNA array
# In short: as §1
Variant,self-cleavage kobs at 640 uM GlcN6P (glucosamine-6-phosphate [1]),self-cleavage kobs at 2500 uM GlcN6P (glucosamine-6-phosphate [2]),self-cleavage kobs at 10000 uM GlcN6P (glucosamine-6-phosphate [3])
C10G C11A C16A C58G C71G,0.00176 ± 0.00062 s⁻¹,0.000241 ± 0.0001 s⁻¹,–
C11G C50A A52G,< 1e-05 s⁻¹,–,–
U30G U55G C68U,0.000548 ± 0.00014 s⁻¹,7.82e-05 ± 2.1e-05 s⁻¹,–
C10U A15C G43U G63U,< 1e-05 s⁻¹,< 1e-05 s⁻¹,–
A42U U69C C70A,0.0004 ± 0.00011 s⁻¹,0.000308 ± 9.7e-05 s⁻¹,–
A12G G41A G59U,< 1e-05 s⁻¹,< 1e-05 s⁻¹,–
A6U G38U A39C U55A,< 1e-05 s⁻¹,< 1e-05 s⁻¹,–
A52U A53G G59C,< 1e-05 s⁻¹,< 1e-05 s⁻¹,–
A33U A42G C68A,< 1e-05 s⁻¹,< 1e-05 s⁻¹,–
C16U U55A C68G,8.37e-05 ± 1.4e-05 s⁻¹,3.34e-05 ± 1e-05 s⁻¹,7.42e-05 ± 1.8e-05 s⁻¹
C11U A33U A53C,< 1e-05 s⁻¹,–,–
G13A A14C A42G C70U,4.53e-05 ± 1.8e-05 s⁻¹,9.61e-05 ± 1.4e-05 s⁻¹,–
G66C C68U C70U,0.000337 ± 9.2e-05 s⁻¹,–,–
G9U U45G A52G,< 1e-05 s⁻¹,–,–
U46A C58G,< 1e-05 s⁻¹,–,–
G13U G40A G43C U49C C68G,< 1e-05 s⁻¹,–,–
C11U U31C G41C U49C G62A,< 1e-05 s⁻¹,–,–
C58U A64C C71A,< 1e-05 s⁻¹,–,–
G7A C11U A52U C58A G62U,< 1e-05 s⁻¹,–,–
C11U A48U G66U,< 1e-05 s⁻¹,–,–
G7A A15U G51C A64G,< 1e-05 s⁻¹,–,–
C8G A36G A39U G43U,< 1e-05 s⁻¹,< 1e-05 s⁻¹,–
A33U C34U C70G,0.00168 ± 0.00079 s⁻¹,–,–
A12G A48U G63U,< 1e-05 s⁻¹,–,–

Variant,self-cleavage kobs at 640 uM GlcN6P (glucosamine-6-phosphate [1]),self-cleavage kobs at 2500 uM GlcN6P (glucosamine-6-phosphate [2]),self-cleavage kobs at 10000 uM GlcN6P (glucosamine-6-phosphate [3])
G44C A52G U54G,< 1e-05 s⁻¹,< 1e-05 s⁻¹,–
A6G A36G G41A,< 1e-05 s⁻¹,–,< 1e-05 s⁻¹
G37U A42C U56G,< 1e-05 s⁻¹,–,–
A6U A33C A39U C71U,< 1e-05 s⁻¹,–,–
G32A A53C C58U C71A,< 1e-05 s⁻¹,–,–
G13A A14G G29C C50G,0.000185 ± 6.9e-05 s⁻¹,–,–
G29A G43C A52C C61U,< 1e-05 s⁻¹,< 1e-05 s⁻¹,–
C8G C11U A15U G29C G41U,< 1e-05 s⁻¹,–,< 1e-05 s⁻¹
A36G A39C U47G,< 1e-05 s⁻¹,< 1e-05 s⁻¹,< 1e-05 s⁻¹
G37C A39G U45A U49A,< 1e-05 s⁻¹,< 1e-05 s⁻¹,–
G41U C50A U65A,< 1e-05 s⁻¹,–,–
C11A G44U A48G C61A,< 1e-05 s⁻¹,–,–
C10A A33G U45C G66A C70U,< 1e-05 s⁻¹,< 1e-05 s⁻¹,–
G9A G29A G63U,< 1e-05 s⁻¹,< 1e-05 s⁻¹,–
A15G A42C A64C U69C,< 1e-05 s⁻¹,–,–
C8A U55G A64U,< 1e-05 s⁻¹,< 1e-05 s⁻¹,–
G9U U47A,< 1e-05 s⁻¹,< 1e-05 s⁻¹,–
A39G U46C U47G U65A,0.0001 ± 3.8e-05 s⁻¹,–,–
U46C G60U,< 1e-05 s⁻¹,< 1e-05 s⁻¹,–
C34G G51A C67U,< 1e-05 s⁻¹,–,–
A36C A42G G43A C67G,< 1e-05 s⁻¹,–,–
G7A U31C A52G,< 1e-05 s⁻¹,–,–
A6G U30G G43C G60U C71G,< 1e-05 s⁻¹,–,–
A14U A36G G40A G41A U54A U57A C71U,< 1e-05 s⁻¹,–,–

Variant,self-cleavage kobs at 640 uM GlcN6P (glucosamine-6-phosphate [1]),self-cleavage kobs at 2500 uM GlcN6P (glucosamine-6-phosphate [2]),self-cleavage kobs at 10000 uM GlcN6P (glucosamine-6-phosphate [3])
A14G A36C G40C G51C,< 1e-05 s⁻¹,–,–
G40U U65G,0.000417 ± 0.00014 s⁻¹,0.00108 ± 0.00028 s⁻¹,0.0019 ± 0.00044 s⁻¹
G13U G29U G32A,0.000242 ± 7e-05 s⁻¹,–,–
C8A U55G G63U,< 1e-05 s⁻¹,–,–
G13U C16U A33C C68U,< 1e-05 s⁻¹,–,–
A53U C58U C67U,9.41e-05 ± 4.6e-05 s⁻¹,–,–
A33C A42U C67A,< 1e-05 s⁻¹,–,–
C16G U46A U49G C67G U69G C71G,< 1e-05 s⁻¹,–,–
G7A C16U C71A,< 1e-05 s⁻¹,–,–
G7C C10A C71A,< 1e-05 s⁻¹,–,–
G7U C61G C67A,0.000105 ± 4.6e-05 s⁻¹,0.00214 ± 0.00087 s⁻¹,–
A15C C16U U45A,0.000911 ± 0.00018 s⁻¹,0.00147 ± 0.00058 s⁻¹,–
U31A G35C G38U A48U U49G G63C,< 1e-05 s⁻¹,< 1e-05 s⁻¹,–
A14C G44C U55C,< 1e-05 s⁻¹,–,–
U45C U47A,0.000335 ± 8.3e-05 s⁻¹,0.000441 ± 0.00018 s⁻¹,–
G29U A42G U45C,6.45e-05 ± 2.4e-05 s⁻¹,0.000107 ± 3.3e-05 s⁻¹,–
A36U U55C G60U,< 1e-05 s⁻¹,–,–
A6U U31G C67G,< 1e-05 s⁻¹,–,–
A12G A39U A42C,8.45e-05 ± 2.4e-05 s⁻¹,0.000119 ± 2.7e-05 s⁻¹,–
A6C U45C G51C U65G C70G,< 1e-05 s⁻¹,< 1e-05 s⁻¹,–
C8A U57G,< 1e-05 s⁻¹,< 1e-05 s⁻¹,–
G7A A15G U30C A48G U57A,< 1e-05 s⁻¹,< 1e-05 s⁻¹,–
